Experimental findings from paper doi:10.1101/2020.12.18.423415 are described below.

In the assay the target is SARS-CoV-2 Spike protein (S protein) (SARS-CoV-2) (UniProt P0DTC2). Briefly: ELISA. (ELISA stands for enzyme-linked immunosorbent assay.)

Sequence of recombinant fragment of human surfactant protein D (rfhSP-D) (P35247 201-375): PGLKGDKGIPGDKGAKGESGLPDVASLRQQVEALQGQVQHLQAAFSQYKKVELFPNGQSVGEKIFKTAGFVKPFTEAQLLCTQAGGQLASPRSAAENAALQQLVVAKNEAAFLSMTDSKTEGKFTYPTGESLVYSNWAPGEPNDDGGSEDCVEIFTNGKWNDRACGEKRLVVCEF

“recombinant fragment of human surfactant protein D (rfhSP-D) (from UniProt P35247 201-375) (domain or fragment)” registered a percent decrease of S protein-hACE-2 binding (rfhSP-D increased 5-fold) of 50%.
